# Results published in publication PMC7083845.
# Assays:
# [1] = biological target: Cub fusion of mature GENOMES UNCOUPLED 4 (GUN4) (Arabidopsis thaliana) (UniProt Q9LX31)
# [2] = biological target: Cub fusion of mature GENOMES UNCOUPLED 4 (GUN4) (Arabidopsis thaliana) (UniProt Q9LX31); remark: listed apart in the source
# UniProt Q9LX31, sequence (Q9LX31 70-265): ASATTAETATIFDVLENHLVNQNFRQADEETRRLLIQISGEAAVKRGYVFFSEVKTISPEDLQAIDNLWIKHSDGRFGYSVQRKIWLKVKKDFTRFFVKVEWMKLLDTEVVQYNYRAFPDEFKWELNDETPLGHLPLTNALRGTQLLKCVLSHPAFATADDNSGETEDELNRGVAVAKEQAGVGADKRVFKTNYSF
substance,measurement,setting,value
NubG-BCM1 (mature BALANCE of CHLOROPHYLL METABOLISM 1) (natural protein),"in vitro MgCh activity (MgP formed, HPLC) of recombinant MgCh subunits with His-GUN4: thylakoids from BCM1-OX3/gun4-1 against thylakoids from bcm1-3 gun4-1 seedlings",[1],12%
same,in vitro MgCh activity in 0.15 mM β-DM: 1 μM purified His-BCM1 against assays without BCM1 or with 1 μM GST,[2],3 fold
same,in vitro MgCh activity with His-GUN4 and the three MgCh subunits: yeast membranes holding His-BCM1 against control membranes without BCM1,[2],12%
